The results in this text go back to paper PMC3582769 (Molecular cell, 2013).

For this assay, the target named is ELOBC heterodimer (UniProt Q15370;Q15369). The assay can be described thus: SEC-MALS. (SEC sorts molecules by how far they enter the pores of the column.)
ELOBC heterodimer, sequence (Q15370 whole entry, chain 1 of 2): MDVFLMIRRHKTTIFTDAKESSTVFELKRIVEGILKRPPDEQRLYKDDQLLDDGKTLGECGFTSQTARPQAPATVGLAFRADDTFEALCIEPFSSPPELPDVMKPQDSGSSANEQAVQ
ELOBC heterodimer, sequence (Q15369 whole entry, chain 2 of 2): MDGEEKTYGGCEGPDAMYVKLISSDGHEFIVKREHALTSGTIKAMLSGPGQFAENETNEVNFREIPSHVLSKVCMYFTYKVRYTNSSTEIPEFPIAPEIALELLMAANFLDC

B1: Strep-Vif (HIV-1 Vif, wild type) (natural protein)
chain: not shown
On to B1, for which the binding result is recorded as “binds”.
